The text below walks through data of IntAct's records for PubMed 10602480.

The chains are these.
B1: Death-associated protein kinase 3 (Rattus norvegicus (Rat)), O88764 (parent)
chain: MSTFRQEDVEDHYEMGEELGSGQFAIVRKCQQKGTGMEYAAKFIKKRRLPSSRRGVSREEIEREVSILREIRHPNIITLHDVFENKTDVVLILELVSGGELFDFLAEKESLTEDEATQFLKQILDGVHYLHSKRIAHFDLKPENIMLLDKHAASPRIKLIDFGIAHRIEAGSEFKNIFGTPEFVAPEIVNYEPLGLEADMWSIGVITYILLSGASPFLGETKQETLTNISAVNYDFDEEYFSSTSELAKDFIRRLLVKDPKRRMTIAQSLEHSWIKVRRREDGARKPERRRLRAARLREYSLKSHSSMPRNTSYASFERFSRVLEDVAAAEQGLRELQRGRRQCRERVCALRVAAEQREARCRDGSAGLGRDLRRLRTELGRTEALRTRAQEEARAALLGAGGLKRRLCRLENRYDALAAQVAAEVQFVRDLVRALEQERLQAECGVR
partner: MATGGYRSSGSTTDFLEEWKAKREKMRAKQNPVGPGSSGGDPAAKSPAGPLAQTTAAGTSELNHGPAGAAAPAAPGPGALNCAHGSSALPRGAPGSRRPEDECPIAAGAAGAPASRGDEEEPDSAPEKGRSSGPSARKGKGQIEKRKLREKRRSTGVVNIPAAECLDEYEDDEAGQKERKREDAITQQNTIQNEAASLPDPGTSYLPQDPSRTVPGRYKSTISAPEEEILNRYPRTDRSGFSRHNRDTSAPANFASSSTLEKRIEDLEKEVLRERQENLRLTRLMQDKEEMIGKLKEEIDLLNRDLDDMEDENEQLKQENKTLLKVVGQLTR

Variants of B1 are the subject of this assay. Particulars: with pawr_rat Pawr.
Turning to K42A, the “effect of a mutation on the interaction” value was “disrupting interaction”.
